# Measured values from paper PMC9482650, “Quantitative fragmentomics allow affinity mapping of interactomes” (Nature Communications, 2022).
# T1: PDZRN3_1, Q9UPQ7
# T1 sequence (Q9UPQ7 244-349, limits assumed, looked up): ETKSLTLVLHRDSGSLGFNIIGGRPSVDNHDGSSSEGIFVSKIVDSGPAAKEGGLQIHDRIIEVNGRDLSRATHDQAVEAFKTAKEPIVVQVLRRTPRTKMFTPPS
# T2: SNTB1, Q13884
# T2 sequence (Q13884 107-205, limits assumed, looked up): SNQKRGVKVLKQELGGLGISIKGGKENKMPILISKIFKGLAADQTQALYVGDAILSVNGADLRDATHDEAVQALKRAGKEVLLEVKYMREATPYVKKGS
# T3: HTRA3, P83110
# T3 sequence (P83110 354-453, limits assumed, looked up): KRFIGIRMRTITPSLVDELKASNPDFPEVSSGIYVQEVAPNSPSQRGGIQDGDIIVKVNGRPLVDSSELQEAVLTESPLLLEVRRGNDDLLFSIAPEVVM
# T4: LNX2_2, Q8N448
# T4 sequence (Q8N448 334-432, limits assumed, looked up): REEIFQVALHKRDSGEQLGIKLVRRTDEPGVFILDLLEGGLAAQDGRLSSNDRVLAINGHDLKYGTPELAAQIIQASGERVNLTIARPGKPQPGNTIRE
# T5: MPDZ_12, O75970
# T5 sequence (O75970 1857-1958, limits assumed, looked up): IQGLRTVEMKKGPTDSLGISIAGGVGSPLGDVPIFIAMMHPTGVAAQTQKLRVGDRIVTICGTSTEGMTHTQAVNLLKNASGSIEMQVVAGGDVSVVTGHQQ
# T6: MPP6, Q9NZW5
# T6 sequence (Q9NZW5 125-219, limits assumed, looked up): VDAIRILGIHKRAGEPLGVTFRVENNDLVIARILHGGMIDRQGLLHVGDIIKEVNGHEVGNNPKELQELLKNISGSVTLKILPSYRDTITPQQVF
# T7: GRIP1_7, Q9Y3R0
# T7 sequence (Q9Y3R0 999-1096, limits assumed, looked up): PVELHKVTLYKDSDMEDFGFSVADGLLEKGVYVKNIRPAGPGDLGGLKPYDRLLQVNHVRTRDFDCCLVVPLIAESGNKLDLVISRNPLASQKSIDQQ
# T8: RADIL, Q96JH8
# T8 sequence (Q96JH8 971-1071, limits assumed, looked up): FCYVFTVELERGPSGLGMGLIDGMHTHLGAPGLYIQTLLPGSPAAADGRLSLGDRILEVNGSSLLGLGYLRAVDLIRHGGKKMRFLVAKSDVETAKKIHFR
# T9: HTRA4, P83105
# T9 sequence (P83105 378-476, limits assumed, looked up): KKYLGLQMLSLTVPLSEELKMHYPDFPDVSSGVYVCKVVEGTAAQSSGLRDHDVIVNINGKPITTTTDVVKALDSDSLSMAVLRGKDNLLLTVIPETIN
# T10: SNTG1, Q9NSN8
# T10 sequence (Q9NSN8 52-150, limits assumed, looked up): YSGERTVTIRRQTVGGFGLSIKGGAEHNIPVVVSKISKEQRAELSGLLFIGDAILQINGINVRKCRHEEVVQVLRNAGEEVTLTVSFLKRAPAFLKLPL
# T11: PCLO, Q9Y6V0
# T11 sequence (Q9Y6V0 4491-4600, limits assumed, looked up): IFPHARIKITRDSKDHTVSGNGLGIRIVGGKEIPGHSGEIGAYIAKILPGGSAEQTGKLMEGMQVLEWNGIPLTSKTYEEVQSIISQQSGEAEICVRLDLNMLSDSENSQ
# B1: RAPGEF6, Q8TEU7 (peptide)
# chain: ADENEQVSAV
# B2: NET1, Q7Z628 (peptide)
# chain: SGGKRKETLV
# B3: PDLIM2, Q96JY6 (peptide)
# chain: SAPATLSSRA
# What was measured:
# Assay in all cases: holdup assay
# Parameters in all cases: key: below the threshold = too weak to quantify, mostly under pKd 3.1 to 4
# PDZRN3_1, Q9UPQ7 = biological target: T1, PDZRN3_1, Q9UPQ7
# SNTB1, Q13884 = biological target: T2, SNTB1, Q13884
# Inadl_3, Q8NI35 = biological target: Inadl_3, Q8NI35
# Inadl_3, Q8NI35, sequence (Q8NI35 359-469): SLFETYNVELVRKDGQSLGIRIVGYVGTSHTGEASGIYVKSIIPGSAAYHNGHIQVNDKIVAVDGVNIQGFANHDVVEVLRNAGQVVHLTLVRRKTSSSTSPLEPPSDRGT
# LIMK2, P53671 = biological target: LIMK2, P53671
# LIMK2, P53671, sequence (P53671 143-248): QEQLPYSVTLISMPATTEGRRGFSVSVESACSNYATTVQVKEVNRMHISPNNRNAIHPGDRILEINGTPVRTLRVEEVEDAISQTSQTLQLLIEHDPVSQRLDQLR
# FRMPD2_2, Q68DX3 = biological target: FRMPD2_2, Q68DX3
# FRMPD2_2, Q68DX3, sequence (Q68DX3 944-1038): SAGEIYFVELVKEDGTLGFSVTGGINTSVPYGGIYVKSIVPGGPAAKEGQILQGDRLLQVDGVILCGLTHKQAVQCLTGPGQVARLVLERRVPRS
# HTRA3, P83110 = biological target: T3, HTRA3, P83110
# LNX2_2, Q8N448 = biological target: T4, LNX2_2, Q8N448
# HTRA1, Q92743 = biological target: HTRA1, Q92743
# HTRA1, Q92743, sequence (Q92743 360-477): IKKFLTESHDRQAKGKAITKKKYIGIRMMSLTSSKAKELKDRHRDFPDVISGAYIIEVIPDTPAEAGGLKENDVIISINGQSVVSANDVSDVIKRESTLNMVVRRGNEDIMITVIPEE
# LNX1_3, Q8TBB1 = biological target: LNX1_3, Q8TBB1
# LNX1_3, Q8TBB1, sequence (Q8TBB1 500-596): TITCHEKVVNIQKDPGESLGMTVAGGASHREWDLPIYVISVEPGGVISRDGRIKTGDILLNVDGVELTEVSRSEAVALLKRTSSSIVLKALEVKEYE
# DLG5_1, Q8TDM6 = biological target: DLG5_1, Q8TDM6
# DLG5_1, Q8TDM6, sequence (Q8TDM6 617-713): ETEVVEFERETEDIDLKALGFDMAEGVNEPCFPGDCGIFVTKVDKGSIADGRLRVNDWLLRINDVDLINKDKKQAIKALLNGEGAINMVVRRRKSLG
# Inadl_5, Q8NI35 = biological target: Inadl_5, Q8NI35
# Inadl_5, Q8NI35, sequence (Q8NI35 673-780): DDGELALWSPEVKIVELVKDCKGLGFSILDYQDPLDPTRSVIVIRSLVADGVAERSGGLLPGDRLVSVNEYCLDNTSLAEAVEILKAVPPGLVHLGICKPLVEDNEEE
# MPDZ_12, O75970 = biological target: T5, MPDZ_12, O75970
# GORASP1, Q9BQQ3 = biological target: GORASP1, Q9BQQ3
# GORASP1, Q9BQQ3, sequence (Q9BQQ3 1-208): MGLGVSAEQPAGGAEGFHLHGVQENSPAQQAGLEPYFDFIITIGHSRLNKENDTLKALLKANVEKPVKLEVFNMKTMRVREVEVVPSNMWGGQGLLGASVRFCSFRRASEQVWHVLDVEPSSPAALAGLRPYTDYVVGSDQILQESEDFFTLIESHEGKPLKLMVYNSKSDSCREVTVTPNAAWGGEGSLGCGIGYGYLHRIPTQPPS
# NHERF4_1, Q86UT5-2 = biological target: NHERF4_1, Q86UT5-2
# NHERF4_1, Q86UT5-2, sequence (Q86UT5 other isoform, or with tags, fused parts or gaps): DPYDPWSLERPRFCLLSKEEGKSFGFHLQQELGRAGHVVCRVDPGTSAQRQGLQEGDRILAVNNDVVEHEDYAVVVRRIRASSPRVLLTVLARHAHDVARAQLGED
# MPP6, Q9NZW5 = biological target: T6, MPP6, Q9NZW5
# PARD3_3, Q8TEW0 = biological target: PARD3_3, Q8TEW0
# PARD3_3, Q8TEW0, sequence (Q8TEW0 582-685): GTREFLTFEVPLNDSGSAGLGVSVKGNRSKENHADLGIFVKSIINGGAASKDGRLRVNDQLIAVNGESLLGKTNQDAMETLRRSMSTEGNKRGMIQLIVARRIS
# GRIP1_7, Q9Y3R0 = biological target: T7, GRIP1_7, Q9Y3R0
# RADIL, Q96JH8 = biological target: T8, RADIL, Q96JH8
# HTRA4, P83105 = biological target: T9, HTRA4, P83105
# IL16_3, Q14005 = biological target: IL16_3, Q14005
# IL16_3, Q14005, sequence (Q14005 1107-1207): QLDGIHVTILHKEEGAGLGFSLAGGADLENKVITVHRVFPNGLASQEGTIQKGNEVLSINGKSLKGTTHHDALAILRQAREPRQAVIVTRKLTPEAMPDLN
# FRMPD4, Q14CM0 = biological target: FRMPD4, Q14CM0
# FRMPD4, Q14CM0, sequence (Q14CM0 67-160): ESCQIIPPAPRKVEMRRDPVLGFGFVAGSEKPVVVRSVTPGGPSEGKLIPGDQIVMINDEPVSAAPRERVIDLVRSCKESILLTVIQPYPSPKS
# SNTG1, Q9NSN8 = biological target: T10, SNTG1, Q9NSN8
# GRASP, Q7Z6J2 = biological target: GRASP, Q7Z6J2
# GRASP, Q7Z6J2, sequence (Q7Z6J2 96-193): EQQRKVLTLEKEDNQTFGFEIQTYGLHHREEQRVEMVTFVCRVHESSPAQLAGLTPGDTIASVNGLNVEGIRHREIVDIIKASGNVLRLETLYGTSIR
# FRMPD2_1, Q68DX3 = biological target: FRMPD2_1, Q68DX3
# FRMPD2_1, Q68DX3, sequence (Q68DX3 770-861): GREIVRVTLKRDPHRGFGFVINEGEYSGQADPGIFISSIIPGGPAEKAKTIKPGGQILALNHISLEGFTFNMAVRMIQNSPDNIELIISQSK
# IL16_4, Q14005 = biological target: IL16_4, Q14005
# IL16_4, Q14005, sequence (Q14005 1229-1329): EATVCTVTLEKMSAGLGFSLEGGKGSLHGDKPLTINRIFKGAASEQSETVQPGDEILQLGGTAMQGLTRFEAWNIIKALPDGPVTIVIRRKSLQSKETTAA
# PCLO, Q9Y6V0 = biological target: T11, PCLO, Q9Y6V0
# [1] = plain residues with an end cap or a label only (N-terminal biotin on a linker: ahx)
# [2] = plain residues with an end cap or a label only (N-terminal biotin on a linker: ttds)
binder,measurement,setting,value
B1,pKd,"PDZRN3_1, Q9UPQ7; [1]",3.79
same,pKd,"SNTB1, Q13884; [1]",3.71
same,pKd,"Inadl_3, Q8NI35; [1]",3.63
same,pKd,"LIMK2, P53671; [1]",below the threshold
same,pKd,"FRMPD2_2, Q68DX3; [1]",4.85
same,pKd,"HTRA3, P83110; [1]",below the threshold
same,pKd,"LNX2_2, Q8N448; [1]",below the threshold
same,pKd,"HTRA1, Q92743; [1]",3.94
same,pKd,"LNX1_3, Q8TBB1; [1]",below the threshold
same,pKd,"DLG5_1, Q8TDM6; [1]",below the threshold
same,pKd,"Inadl_5, Q8NI35; [1]",below the threshold
same,pKd,"MPDZ_12, O75970; [1]",below the threshold
same,pKd,"GORASP1, Q9BQQ3; [1]",below the threshold
same,pKd,"NHERF4_1, Q86UT5-2; [1]",below the threshold
same,pKd,"MPP6, Q9NZW5; [1]",below the threshold
same,pKd,"PARD3_3, Q8TEW0; [1]",below the threshold
same,pKd,"GRIP1_7, Q9Y3R0; [1]",below the threshold
same,pKd,"RADIL, Q96JH8; [1]",below the threshold
same,pKd,"HTRA4, P83105; [1]",below the threshold
same,pKd,"IL16_3, Q14005; [1]",below the threshold
same,pKd,"FRMPD4, Q14CM0; [1]",below the threshold
same,pKd,"SNTG1, Q9NSN8; [1]",4.07
same,pKd,"GRASP, Q7Z6J2; [1]",4.66
same,pKd,"FRMPD2_1, Q68DX3; [1]",below the threshold
same,pKd,"IL16_4, Q14005; [1]",below the threshold
same,pKd,"PCLO, Q9Y6V0; [1]",below the threshold
B2,pKd,"PDZRN3_1, Q9UPQ7; [2]",4.67
same,pKd,"SNTB1, Q13884; [2]",4.56
same,pKd,"Inadl_3, Q8NI35; [2]",below the threshold
same,pKd,"LIMK2, P53671; [2]",below the threshold
same,pKd,"FRMPD2_2, Q68DX3; [2]",3.67
same,pKd,"HTRA3, P83110; [2]",below the threshold
same,pKd,"LNX2_2, Q8N448; [2]",4.66
same,pKd,"HTRA1, Q92743; [2]",below the threshold
same,pKd,"LNX1_3, Q8TBB1; [2]",below the threshold
same,pKd,"DLG5_1, Q8TDM6; [2]",below the threshold
same,pKd,"Inadl_5, Q8NI35; [2]",3.78
same,pKd,"MPDZ_12, O75970; [2]",below the threshold
same,pKd,"GORASP1, Q9BQQ3; [2]",below the threshold
same,pKd,"NHERF4_1, Q86UT5-2; [2]",below the threshold
same,pKd,"MPP6, Q9NZW5; [2]",below the threshold
same,pKd,"PARD3_3, Q8TEW0; [2]",below the threshold
same,pKd,"GRIP1_7, Q9Y3R0; [2]",below the threshold
same,pKd,"RADIL, Q96JH8; [2]",3.82
same,pKd,"HTRA4, P83105; [2]",below the threshold
same,pKd,"IL16_3, Q14005; [2]",below the threshold
same,pKd,"FRMPD4, Q14CM0; [2]",3.65
same,pKd,"SNTG1, Q9NSN8; [2]",3.83
same,pKd,"GRASP, Q7Z6J2; [2]",below the threshold
same,pKd,"FRMPD2_1, Q68DX3; [2]",3.95
same,pKd,"IL16_4, Q14005; [2]",below the threshold
same,pKd,"PCLO, Q9Y6V0; [2]",below the threshold
B3,pKd,"PDZRN3_1, Q9UPQ7; [1]",below the threshold
same,pKd,"SNTB1, Q13884; [1]",below the threshold
same,pKd,"Inadl_3, Q8NI35; [1]",3.48
same,pKd,"LIMK2, P53671; [1]",below the threshold
same,pKd,"FRMPD2_2, Q68DX3; [1]",below the threshold
same,pKd,"HTRA3, P83110; [1]",below the threshold
same,pKd,"LNX2_2, Q8N448; [1]",below the threshold
same,pKd,"HTRA1, Q92743; [1]",below the threshold
same,pKd,"LNX1_3, Q8TBB1; [1]",below the threshold
same,pKd,"DLG5_1, Q8TDM6; [1]",below the threshold
same,pKd,"Inadl_5, Q8NI35; [1]",below the threshold
same,pKd,"MPDZ_12, O75970; [1]",below the threshold
same,pKd,"GORASP1, Q9BQQ3; [1]",below the threshold
same,pKd,"NHERF4_1, Q86UT5-2; [1]",below the threshold
same,pKd,"MPP6, Q9NZW5; [1]",below the threshold
same,pKd,"PARD3_3, Q8TEW0; [1]",below the threshold
same,pKd,"GRIP1_7, Q9Y3R0; [1]",below the threshold
same,pKd,"RADIL, Q96JH8; [1]",below the threshold
same,pKd,"HTRA4, P83105; [1]",below the threshold
same,pKd,"IL16_3, Q14005; [1]",below the threshold
same,pKd,"FRMPD4, Q14CM0; [1]",below the threshold
same,pKd,"SNTG1, Q9NSN8; [1]",below the threshold
same,pKd,"GRASP, Q7Z6J2; [1]",below the threshold
same,pKd,"FRMPD2_1, Q68DX3; [1]",below the threshold
same,pKd,"IL16_4, Q14005; [1]",below the threshold
same,pKd,"PCLO, Q9Y6V0; [1]",below the threshold
